Test results as given in patent publication US20020119153A1.

What was measured:
[1] = target: VEGF:sFlk-1 complex (human; mouse) (UniProt P15692); test: capture ELISA: biotinylated sFlk-1 complexed with VEGF titrated onto wells coated with the antibody; concentration giving 50% maximal binding; extrapolated value
[2] = target: recombinant human VEGF165 (human) (UniProt P15692); test: blocking ELISA, negative control: 1 nM VEGF bound to wells coated with VEGFR1 (Flt-1/Fc) with 100 nM control IgG of irrelevant specificity (100x) present; bound VEGF detected with rabbit anti-VEGF A-20; the number measures VEGF:VEGFR1 binding, not binding of the control IgG to VEGF
[3] = target: recombinant human VEGF165 (human) (UniProt P15692); test: blocking ELISA, negative control: 1 nM VEGF bound to wells coated with VEGFR2 (sFlk-1) with 100 nM control IgG of irrelevant specificity (100x) present; bound VEGF detected with rabbit anti-VEGF A-20; the number measures VEGF:VEGFR2 binding, not binding of the control IgG to VEGF
[4] = target: recombinant human VEGF165 (human) (UniProt P15692); test: blocking ELISA, negative control: 1 nM VEGF bound to wells coated with VEGFR1 (Flt-1/Fc) with 1000 nM control IgG of irrelevant specificity (1000x) present; bound VEGF detected with rabbit anti-VEGF A-20; the number measures VEGF:VEGFR1 binding, not binding of the control IgG to VEGF
[5] = target: recombinant human VEGF165 (human) (UniProt P15692); test: blocking ELISA, negative control: 1 nM VEGF bound to wells coated with VEGFR2 (sFlk-1) with 1000 nM control IgG of irrelevant specificity (1000x) present; bound VEGF detected with rabbit anti-VEGF A-20; the number measures VEGF:VEGFR2 binding, not binding of the control IgG to VEGF

Chain of recombinant human VEGF165 (human) (P15692 other isoform, or with tags, fused parts or gaps): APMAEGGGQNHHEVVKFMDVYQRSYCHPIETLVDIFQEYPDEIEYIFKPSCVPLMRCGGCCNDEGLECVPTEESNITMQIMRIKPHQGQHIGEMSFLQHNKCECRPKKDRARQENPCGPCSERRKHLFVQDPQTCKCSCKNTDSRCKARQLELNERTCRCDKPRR
Chain of VEGF:sFlk-1 complex (human; mouse) (P15692 other isoform, or with tags, fused parts or gaps limits assumed, chain 1 of 2): as the sequence (P15692 other isoform, or with tags, fused parts or gaps) above
Chain of VEGF:sFlk-1 complex (human; mouse) (P35918 20-762 limits assumed, chain 2 of 2, further chain): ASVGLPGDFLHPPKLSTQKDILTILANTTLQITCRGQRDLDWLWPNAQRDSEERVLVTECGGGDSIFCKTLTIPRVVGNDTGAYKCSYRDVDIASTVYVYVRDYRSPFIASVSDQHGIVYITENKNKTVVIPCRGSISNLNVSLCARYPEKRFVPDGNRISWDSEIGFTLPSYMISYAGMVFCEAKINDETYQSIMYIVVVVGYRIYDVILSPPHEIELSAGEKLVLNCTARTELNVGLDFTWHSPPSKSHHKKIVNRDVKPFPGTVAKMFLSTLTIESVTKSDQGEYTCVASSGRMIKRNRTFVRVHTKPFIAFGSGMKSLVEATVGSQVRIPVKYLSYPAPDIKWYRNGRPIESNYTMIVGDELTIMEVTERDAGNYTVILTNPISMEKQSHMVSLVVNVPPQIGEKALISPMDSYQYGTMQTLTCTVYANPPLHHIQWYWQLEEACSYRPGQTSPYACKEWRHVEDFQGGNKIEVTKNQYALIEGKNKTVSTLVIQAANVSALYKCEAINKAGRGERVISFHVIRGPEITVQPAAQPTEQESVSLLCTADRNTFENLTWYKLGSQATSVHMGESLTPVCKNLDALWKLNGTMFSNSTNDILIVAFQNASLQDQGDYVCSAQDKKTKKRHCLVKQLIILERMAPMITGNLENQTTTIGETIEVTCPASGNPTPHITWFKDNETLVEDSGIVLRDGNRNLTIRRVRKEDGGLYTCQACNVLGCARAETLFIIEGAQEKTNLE

Row | Substance | EC50 [1] [nM] | % of VEGF alone [2] [%] | % of VEGF alone [3] [%] | % of VEGF alone [4] [%] | % of VEGF alone [5] [%]
1 | A4.6.1, mouse anti-human VEGF monoclonal antibody (Genentech) | 500 |  |  |  | 
2 | control IgG of irrelevant specificity (antibody) |  | 98 | 96 | 92 | 93
3 | irrelevant IgM (negative control) (antibody) | 600 |  |  |  | 
